Read-outs that look alike come from different tables or passages of the source.

Data set [1] addresses T1, M.HhaI methyltransferase (UniProt P05102 1-327).
T1 sequence: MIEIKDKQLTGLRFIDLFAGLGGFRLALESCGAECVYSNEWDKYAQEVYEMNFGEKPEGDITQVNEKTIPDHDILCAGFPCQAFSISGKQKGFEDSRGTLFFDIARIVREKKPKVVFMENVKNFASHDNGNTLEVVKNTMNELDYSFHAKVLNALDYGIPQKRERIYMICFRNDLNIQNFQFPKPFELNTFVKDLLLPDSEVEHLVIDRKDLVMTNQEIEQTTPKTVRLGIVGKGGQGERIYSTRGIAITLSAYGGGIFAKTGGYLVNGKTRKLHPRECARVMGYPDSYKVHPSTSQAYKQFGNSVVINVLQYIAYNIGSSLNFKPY
Put plainly: electrochemical E-DNA sensor.

Data set [2] deals with T1, M.HhaI methyltransferase. Description: electrochemical E-DNA sensor. This is another data set of the same source.

Take CGGGCTATATAAGGGGCGTTTTCTTATATAG (structured_DNA, 5' HS-(CH2)6 thiol; internal T10 C5-linked methylene blue) [TATA probe]: in the data set with M.HhaI methyltransferase [1], the binding result was “no binding”.

In the case of AAGACGAGCGCATGTTTATGCGCTC (structured_DNA, 5' HS-(CH2)6 thiol; internal T16 C5-linked methylene blue) [M.HhaI probe], the binding result with M.HhaI methyltransferase [2] is listed as “binds”.

(Values after publication PMC2692654.)
